The domain aggregation screens of Martell et al. (2025)

Test: soluble fraction after stress (log2 fold change); higher = more stays soluble; pooled small domains, quantitative proteomics
Details: stress: 50 degC
Summary of the method: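 Custom libraries of small protein domains were pooled and measured in a high-throughput format, with quantitative proteomics as the read-out. Each library was stressed at 50°C. The value is the log2 fold change in the amount of each protein that stays soluble after stress, used as a measure of aggregation propensity; higher values mean more of the protein stays soluble.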

Sequence	soluble fraction (log2)
HMQIKNVDYGTFLDMLDEKNVKEVEIEDEQIVFTDNADPTGYYTTGRMEDPDLVDRLHNSGATFSAI	-0.12
HMEAKQMDAWIVSEAKRQGGKIEPAAAYELSRHTATDTSIASQEIAKLLMYVDFKRPVTREDVVELVSA	0.176
HMFERFIFTDEVYIRLKKSGLPQTTLRPLLEIHGKSFDHNEINIILSGLIPNQDFERYAQIIKSHSRF	-3.82
HMSQTVKYVNTTSGLNMRTGPATSYAKITTIAYGQSVNVLSTSNGWSKINYSGSTGYVSSQYLQSKKPS	-0.942
HMARAPIYPDGLTQREVEVLSLVAAGKTDREIAEELFIALRTVTTHVGNILNKIGAANRTEAAGYATRQGL	-0.459
HMNEIALETAIEDVESFIQMQNRNLAFSIDEDTDRAVVTVRDSDSGDVIRQIPSEEVLALAERIQDLQQD	0.136
HMKGLKERLLYFIEYKGLPVQMFEKIVGLSNAAVSKMGDNTRRSTIDKISKSFPELDVNWLLTGQGEMLSY	-0.255
HMEYPNEIARIFNQIPELNVSAVARTLGINKSLLSSYIYGMKKPSPERTEEIKSAIRKIGQNMLAV	-0.421
HMNQRQLQIKQMLDVAQEVFLKQLKTVFPDVSEMTIRRDLILLEDMGYAVRTHGGAVSINRF	-2.14
HMDIESREAWVDASGMGVRLDRWLTQLAPEFSRNHLQSLIERGAVRVDGQPALVASRKLRIGQQVAVSLIP	-0.868
HMSLLQTRQRHEALAALGFFKGDVAAEWSAASTEALRAAQASLGIRVDGKWGPQTEDAIGKALAERQG	-0.102
HMNKDEFLNELKSYLSILEDEEQADILEEYTQHIDMKISTGLSEAEAIRDFGNVSELAAQILEAY	-0.222
HMATEYIIPTVTNKKLEEAIGIAQLRGFEISVDEYKPSDIDEGTVLEQSPAAGTNAKQGDTISVTVSSG	0.294
HMQPASPELNNQEKKVLQALPENEVIHIDELSDKIQIPVGELLTVLLSLEMKETVIQEPGKFFRRR	-1.28
HMELEDTYTKNLDASLARLDEYQASKGLTDEQVDEVINSLIADAENIIMGVFTPELIDSKLKAMNYDQDV	0.156
HMAEWLFDARKIPDEVMNYLRRIAVQAIEEKHYSPELVADLLGISRSSIYDWLNWYRNGGEEDLDTRKA	-0.613
HMEVSYSLPRFHKGKNPYVDFYQVDPRTLRMRRKKFLLRGVRDAVLLEQRAADLVALLTERLHSGWNAWDD	-2.11
HMIDFDEIEILSSSKIEKIENSEYLKSSIFEKDSNQYIYRLSFENRDQLKNFKKEIEDIDQIKKIDVTY	0.103
HMAEPEALLAMAQRILGEEVAQSLFQGAAREQGKEGYLPDPTPAFLDALEARLSGSVGAATAHAMISQLVG	-0.0483

Sequence	soluble fraction (log2)
HMKSKYLIKIEGDFDEKDLYKYLINVSIVNHTKNNGFTEVEFYNDNYSLQQNFLKSMLNDGIIITEFKKVE	-0.115
HMIVIMKAKAEEEDVNRVIDTIQSLGLRTQLNLGAERMVVAVIGDISKIGEDNFFRIRAMKGVENTVFVSK	-0.396
HMLGITEGSLVRVIRSPNFGKIGTVAELPAELRMMESETMVRIAIVEIEGTNFEIPRSNLEVLET	-1.55
HMVKDLEIETIRLNNLLASDAEEVLKSLGGAKPTYKAVAVPGSNSLVIEGTKADLIKLKSIINALEDGS	0.0941
HMEETLRELAVKISKQVIKTGRNSVLEPMNPYERRIIHAVISEIEGVSSKSVGEDPNRKVVIMSTNP	-0.126
HMKERVSWDERLERFAKHITENESLPYPSSKEYAWFEENKALYDAGELEPVRAQSFAFLLKIMRRMNL	-0.491
HMFRMTPQRMAILAEVQNAERHLTAAEIYERVRRKYPTIAYGTVYRTLHLLAKHGLIQEFPFGDNASLFDR	0.0678
HMQYDALVLNLLQEKNLTSESLKDAQRAFAKSHNLSTLPSKSQILQAYFQLLEQGKIEKNPDFELLL	-0.108
HMDKSPMIGTAEYEGVLYWRQTKDNGATWEWITDKNGDKMPVSGPAPAVGIDKDGYWTVNGESTGVLAKD	0.168
HMQMSERENTILLTKRYIERGEYERAMNLLDSLLIKNALDEEALAMIDEIIALKAGASLQDFPRY	-0.684
HMSFMFEISVIRSQYNMQDPESKTGFYNAIAKKLLEFPEKLERDNYTEAVAREYMIPETDLKNLVNSMGG	-2.17
HMSFSPYLVRVSITDLNIRKGPGTNYAKTGKFTGKGVFTIVEMQTGKGSDTGWGRLKSGAGWISLDYTEKI	-3
HMHGSSSTVPPVKGLSFEQARLTLAENDLTVEISDSIYDRNARPGTVVESWPRAGSVVKQGRQVYVTVTAF	-0.922
HMRDGHEQLQGVLSAIKFHQANFLIGVLDDGTTVKGNMLSPQVGLEYTFRGRRERHPRWGEQFAFMDYRV	-2.76
HMSLYGGYEIDIIKEEVVDAGIKLLRRRVIVADQRGISVYEGKPTFASDDQVLIKEGQYQIDKLG	-2.63
HMRAAFEHLTIGQTVSGLVKSQARGVSLVEIEGQTVAMRLPQPVAVGDTLRLRFAGHMPQPVFLLDT	-0.132
HMQEPIAVPDFINKSAVDVLVNPVFTQNFKLVSEDVYDDKVPEGYIVGQSVKSDTLVQPGTEIVIYV	0.175
HMNNTIKFFVSQDDDSTRLDVFLSKKIENLTRSNIKKFINLNNVKINKATINSPSKKVKLYDEIEIKFSS	-1.72
